How the values were obtained:
[1] = molecular target: human recombinant receptor VEGFR-1, seven extracellular domains fused to the Fc domain of human IgG (R&D Systems, cat No 321-FL) (human) (UniProt P17948); test: competition ELISA, residual binding of VEGF-A (5 ng/ml) to coated VEGFR-1-Fc, peptide 25000 nM
[2] = molecular target: human recombinant receptor VEGFR-1, seven extracellular domains fused to the Fc domain of human IgG (R&D Systems, cat No 321-FL) (human) (UniProt P17948); test: competition ELISA, residual binding of VEGF-A (5 ng/ml) to coated VEGFR-1-Fc, peptide 3125 nM
[3] = molecular target: human recombinant receptor VEGFR-1, seven extracellular domains fused to the Fc domain of human IgG (R&D Systems, cat No 321-FL) (human) (UniProt P17948); test: competition ELISA, residual binding of VEGF-A (5 ng/ml) to coated VEGFR-1-Fc, peptide 780 nM
[4] = molecular target: human recombinant receptor VEGFR-1, seven extracellular domains fused to the Fc domain of human IgG (R&D Systems, cat No 321-FL) (human) (UniProt P17948); test: competition ELISA, residual binding of PlGF (5 ng/ml) to coated VEGFR-1-Fc, peptide 1560 nM
[5] = molecular target: human recombinant receptor VEGFR-1, seven extracellular domains fused to the Fc domain of human IgG (R&D Systems, cat No 321-FL) (human) (UniProt P17948); test: competition ELISA, residual binding of VEGF-A (5 ng/ml) to coated VEGFR-1-Fc, peptide 12500 nM
[6] = molecular target: human recombinant receptor VEGFR-1, seven extracellular domains fused to the Fc domain of human IgG (R&D Systems, cat No 321-FL) (human) (UniProt P17948); test: competition ELISA, residual binding of PlGF (5 ng/ml) to coated VEGFR-1-Fc, peptide 6250 nM
[7] = molecular target: human recombinant receptor VEGFR-1, seven extracellular domains fused to the Fc domain of human IgG (R&D Systems, cat No 321-FL) (human) (UniProt P17948); test: competition ELISA, residual binding of VEGF-A (5 ng/ml) to coated VEGFR-1-Fc, peptide 6250 nM
[8] = molecular target: human recombinant receptor VEGFR-1, seven extracellular domains fused to the Fc domain of human IgG (R&D Systems, cat No 321-FL) (human) (UniProt P17948); test: competition ELISA, residual binding of VEGF-A (5 ng/ml) to coated VEGFR-1-Fc, peptide 50000 nM
[9] = molecular target: human recombinant receptor VEGFR-1, seven extracellular domains fused to the Fc domain of human IgG (R&D Systems, cat No 321-FL) (human) (UniProt P17948); test: competition ELISA, residual binding of PlGF (5 ng/ml) to coated VEGFR-1-Fc, peptide 780 nM
[10] = molecular target: human recombinant receptor VEGFR-1, seven extracellular domains fused to the Fc domain of human IgG (R&D Systems, cat No 321-FL) (human) (UniProt P17948); test: competition ELISA, residual binding of PlGF (5 ng/ml) to coated VEGFR-1-Fc, peptide 3125 nM
[11] = molecular target: human recombinant receptor VEGFR-1, seven extracellular domains fused to the Fc domain of human IgG (R&D Systems, cat No 321-FL) (human) (UniProt P17948); test: competition ELISA, residual binding of PlGF (5 ng/ml) to coated VEGFR-1-Fc, peptide 12500 nM
[12] = molecular target: human recombinant receptor VEGFR-1, seven extracellular domains fused to the Fc domain of human IgG (R&D Systems, cat No 321-FL) (human) (UniProt P17948); test: competition ELISA, residual binding of PlGF (5 ng/ml) to coated VEGFR-1-Fc, peptide 25000 nM
[13] = molecular target: human recombinant receptor VEGFR-1, seven extracellular domains fused to the Fc domain of human IgG (R&D Systems, cat No 321-FL) (human) (UniProt P17948); test: competition ELISA, residual binding of VEGF-A (5 ng/ml) to coated VEGFR-1-Fc, peptide 1560 nM
[14] = molecular target: human recombinant receptor VEGFR-1, seven extracellular domains fused to the Fc domain of human IgG (R&D Systems, cat No 321-FL) (human) (UniProt P17948); test: competition ELISA, residual binding of PlGF (5 ng/ml) to coated VEGFR-1-Fc, peptide 50000 nM

Chain of human recombinant receptor VEGFR-1, seven extracellular domains fused to the Fc domain of human IgG (R&D Systems, cat No 321-FL) (human) (P17948 27-758): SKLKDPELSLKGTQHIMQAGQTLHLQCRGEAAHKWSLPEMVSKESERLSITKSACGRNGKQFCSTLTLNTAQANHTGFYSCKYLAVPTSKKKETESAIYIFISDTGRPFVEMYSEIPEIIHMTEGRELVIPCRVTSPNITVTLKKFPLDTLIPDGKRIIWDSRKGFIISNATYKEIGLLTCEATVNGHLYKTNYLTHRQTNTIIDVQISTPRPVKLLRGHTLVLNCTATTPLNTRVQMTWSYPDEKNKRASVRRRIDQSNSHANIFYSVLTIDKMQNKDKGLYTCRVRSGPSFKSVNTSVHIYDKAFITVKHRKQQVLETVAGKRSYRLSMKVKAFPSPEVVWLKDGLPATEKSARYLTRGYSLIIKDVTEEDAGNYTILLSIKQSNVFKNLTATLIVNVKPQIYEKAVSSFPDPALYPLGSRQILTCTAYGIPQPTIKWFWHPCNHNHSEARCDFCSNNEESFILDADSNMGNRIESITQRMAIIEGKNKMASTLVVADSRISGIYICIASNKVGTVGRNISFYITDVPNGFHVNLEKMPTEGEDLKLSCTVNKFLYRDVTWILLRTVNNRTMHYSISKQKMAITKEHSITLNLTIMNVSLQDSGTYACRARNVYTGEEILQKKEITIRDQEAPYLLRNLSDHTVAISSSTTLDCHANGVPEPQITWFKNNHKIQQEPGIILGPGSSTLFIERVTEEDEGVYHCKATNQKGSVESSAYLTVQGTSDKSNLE

control peptide (PC), (S-Ser)-(S-Ala)-(S-Cha) tripeptide with a tetrameric structure identical to the structure of the iVR1 peptides
binding % [1]: 93.4%
binding % [2]: 95.2%
binding % [3]: 100%
binding % [4]: 102%
binding % [5]: 100%
binding % [6]: 93.8%
binding % [7]: 91.4%
binding % [8]: 87.9%
binding % [9]: 98.9%
binding % [10]: 99.5%
binding % [11]: 87.2%
binding % [12]: 88.5%
binding % [13]: 103%
binding % [14]: 90.2%
